Results published in PMC3828522.

Target: biotin-YY1 spacer peptide (human) (UniProt P25490)
Test: SPR

SFMBT2 4MBT domain, human (domain or fragment), sequence (Q5VUG0 whole entry, the tested form may be a part): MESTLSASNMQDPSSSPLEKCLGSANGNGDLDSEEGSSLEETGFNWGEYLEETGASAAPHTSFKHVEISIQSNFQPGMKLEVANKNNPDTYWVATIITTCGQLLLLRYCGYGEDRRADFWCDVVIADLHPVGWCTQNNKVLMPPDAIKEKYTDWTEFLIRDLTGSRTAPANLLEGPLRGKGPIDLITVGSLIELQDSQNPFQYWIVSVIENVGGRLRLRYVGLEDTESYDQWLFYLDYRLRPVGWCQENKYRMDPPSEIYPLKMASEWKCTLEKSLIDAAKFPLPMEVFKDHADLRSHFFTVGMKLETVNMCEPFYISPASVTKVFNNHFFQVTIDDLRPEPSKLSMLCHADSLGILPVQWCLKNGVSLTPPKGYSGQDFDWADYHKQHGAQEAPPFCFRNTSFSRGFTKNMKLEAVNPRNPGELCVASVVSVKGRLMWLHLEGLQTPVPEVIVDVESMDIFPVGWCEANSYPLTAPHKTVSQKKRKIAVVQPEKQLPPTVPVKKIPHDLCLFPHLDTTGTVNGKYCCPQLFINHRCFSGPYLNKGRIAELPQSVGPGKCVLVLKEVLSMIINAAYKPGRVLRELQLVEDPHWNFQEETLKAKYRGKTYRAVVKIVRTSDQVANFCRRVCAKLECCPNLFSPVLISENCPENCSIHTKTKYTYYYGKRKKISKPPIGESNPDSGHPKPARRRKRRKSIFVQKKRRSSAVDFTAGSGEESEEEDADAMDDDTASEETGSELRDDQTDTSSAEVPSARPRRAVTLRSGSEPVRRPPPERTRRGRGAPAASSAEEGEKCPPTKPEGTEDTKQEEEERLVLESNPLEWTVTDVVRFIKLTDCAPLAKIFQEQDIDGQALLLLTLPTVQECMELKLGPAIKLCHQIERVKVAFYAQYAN
biotin-YY1 spacer peptide (human), sequence (P25490 199-228): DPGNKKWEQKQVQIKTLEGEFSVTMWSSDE

fold lower affinity than L3MBTL2 and MBTD1: 2 fold
fold weaker affinity than the Drosophila complex: 50 fold
Substance: SFMBT2 4MBT domain, human (domain or fragment)
